Test results: patent publication US20220062341A1 (KIRIN, published 2022)

What follows are binders tested against CD3 subunits (CD3E, CD3G, CD3D, CD3Z) (human, UniProt P07766 23-207; P09693 23-182; P04234 22-171; P20963 22-164) (assay: cell-based or functional assay).
Chain of CD3 subunits (CD3E, CD3G, CD3D, CD3Z) (P07766 23-207, chain 1 of 4): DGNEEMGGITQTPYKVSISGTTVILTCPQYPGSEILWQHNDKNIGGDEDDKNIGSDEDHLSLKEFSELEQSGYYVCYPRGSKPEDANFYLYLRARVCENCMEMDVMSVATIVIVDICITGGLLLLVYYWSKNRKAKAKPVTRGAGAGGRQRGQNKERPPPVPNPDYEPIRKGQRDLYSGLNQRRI
Chain of CD3 subunits (CD3E, CD3G, CD3D, CD3Z) (P09693 23-182, chain 2 of 4): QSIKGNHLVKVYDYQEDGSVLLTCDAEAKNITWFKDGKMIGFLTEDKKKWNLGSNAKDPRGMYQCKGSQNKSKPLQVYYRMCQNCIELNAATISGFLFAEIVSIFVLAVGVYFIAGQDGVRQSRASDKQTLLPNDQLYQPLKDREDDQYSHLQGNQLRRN
Chain of CD3 subunits (CD3E, CD3G, CD3D, CD3Z) (P04234 22-171, chain 3 of 4): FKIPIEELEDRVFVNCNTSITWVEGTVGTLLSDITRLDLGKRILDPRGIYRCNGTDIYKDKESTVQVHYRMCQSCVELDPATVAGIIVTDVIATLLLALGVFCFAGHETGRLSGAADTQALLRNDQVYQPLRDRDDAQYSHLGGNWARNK
Chain of CD3 subunits (CD3E, CD3G, CD3D, CD3Z) (P20963 22-164, chain 4 of 4): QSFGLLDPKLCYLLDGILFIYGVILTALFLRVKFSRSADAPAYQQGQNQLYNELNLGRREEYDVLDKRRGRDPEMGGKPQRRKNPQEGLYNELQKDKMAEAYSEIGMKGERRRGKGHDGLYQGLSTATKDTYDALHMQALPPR

Binder	CD3-recruiting activity (CD3-positive proportion, N=3), CD3-stably expressing 293T cells [%]
modified TCR of the combination of βCR and αCR (TCR) TCR alpha: NIQNPDPAVYQLRDSKSSDKSVCLFTDFDSQTNVSQSKDSDVYITDKTVLDMRSMDFKSNSAVAWSNKSDFACANAFNNSIIPEDTFFPSPESSCDVKLVEKSFETDTNLNFQNLSVIGFRILLLKVAGFNLLMTLRLWSS TCR beta: EDLKNVFPPEVAVFEPSEAEISHTQKATLVCLATGFYPDHVELSWWVNGKEVHSGVSTDPQPLKEQPALNDSRYCLSSRLRVSATFWQNPRNHFRCQVQFYGLSENDEWTQDRAKPVTQIVSAEAWGRADCGFTSESYQQGVLSATILYEILLGKATLYAVLVSALVLMAMVKRKDSRG	≥ 80
modified TCR of the combination of βCR and α1 (TCR) TCR alpha: YQLRDSKSSDKSVCLFTDFDSQTNVSQSKDSDVYITDKTVLDMRSMDFKSNSAVAWSNKSDFACANAFNNSIIPEDTFFPSPESSCDVKLVEKSFETDTNLNFQNLSVIGFRILLLKVAGFNLLMTLRLWSS TCR beta: EDLKNVFPPEVAVFEPSEAEISHTQKATLVCLATGFYPDHVELSWWVNGKEVHSGVSTDPQPLKEQPALNDSRYCLSSRLRVSATFWQNPRNHFRCQVQFYGLSENDEWTQDRAKPVTQIVSAEAWGRADCGFTSESYQQGVLSATILYEILLGKATLYAVLVSALVLMAMVKRKDSRG	≥ 80
modified TCR of the combination of βCR and α2 (TCR) TCR alpha: SVCLFTDFDSQTNVSQSKDSDVYITDKTVLDMRSMDFKSNSAVAWSNKSDFACANAFNNSIIPEDTFFPSPESSCDVKLVEKSFETDTNLNFQNLSVIGFRILLLKVAGFNLLMTLRLWSS TCR beta: EDLKNVFPPEVAVFEPSEAEISHTQKATLVCLATGFYPDHVELSWWVNGKEVHSGVSTDPQPLKEQPALNDSRYCLSSRLRVSATFWQNPRNHFRCQVQFYGLSENDEWTQDRAKPVTQIVSAEAWGRADCGFTSESYQQGVLSATILYEILLGKATLYAVLVSALVLMAMVKRKDSRG	≥ 80
modified TCR of the combination of βCR and α3 (TCR) TCR alpha: NVSQSKDSDVYITDKTVLDMRSMDFKSNSAVAWSNKSDFACANAFNNSIIPEDTFFPSPESSCDVKLVEKSFETDTNLNFQNLSVIGFRILLLKVAGFNLLMTLRLWSS TCR beta: EDLKNVFPPEVAVFEPSEAEISHTQKATLVCLATGFYPDHVELSWWVNGKEVHSGVSTDPQPLKEQPALNDSRYCLSSRLRVSATFWQNPRNHFRCQVQFYGLSENDEWTQDRAKPVTQIVSAEAWGRADCGFTSESYQQGVLSATILYEILLGKATLYAVLVSALVLMAMVKRKDSRG	≥ 80
modified TCR of the combination of βCR and α4 (TCR) TCR alpha: DVYITDKTVLDMRSMDFKSNSAVAWSNKSDFACANAFNNSIIPEDTFFPSPESSCDVKLVEKSFETDTNLNFQNLSVIGFRILLLKVAGFNLLMTLRLWSS TCR beta: EDLKNVFPPEVAVFEPSEAEISHTQKATLVCLATGFYPDHVELSWWVNGKEVHSGVSTDPQPLKEQPALNDSRYCLSSRLRVSATFWQNPRNHFRCQVQFYGLSENDEWTQDRAKPVTQIVSAEAWGRADCGFTSESYQQGVLSATILYEILLGKATLYAVLVSALVLMAMVKRKDSRG	≥ 80
modified TCR of the combination of βCR and α5 (TCR) TCR alpha: LDMRSMDFKSNSAVAWSNKSDFACANAFNNSIIPEDTFFPSPESSCDVKLVEKSFETDTNLNFQNLSVIGFRILLLKVAGFNLLMTLRLWSS TCR beta: EDLKNVFPPEVAVFEPSEAEISHTQKATLVCLATGFYPDHVELSWWVNGKEVHSGVSTDPQPLKEQPALNDSRYCLSSRLRVSATFWQNPRNHFRCQVQFYGLSENDEWTQDRAKPVTQIVSAEAWGRADCGFTSESYQQGVLSATILYEILLGKATLYAVLVSALVLMAMVKRKDSRG	≥ 80
modified TCR of the combination of βCR and α6 (TCR) TCR alpha: KSNSAVAWSNKSDFACANAFNNSIIPEDTFFPSPESSCDVKLVEKSFETDTNLNFQNLSVIGFRILLLKVAGFNLLMTLRLWSS TCR beta: EDLKNVFPPEVAVFEPSEAEISHTQKATLVCLATGFYPDHVELSWWVNGKEVHSGVSTDPQPLKEQPALNDSRYCLSSRLRVSATFWQNPRNHFRCQVQFYGLSENDEWTQDRAKPVTQIVSAEAWGRADCGFTSESYQQGVLSATILYEILLGKATLYAVLVSALVLMAMVKRKDSRG	≥ 80
modified TCR of the combination of βCR and α7 (TCR) TCR alpha: SNKSDFACANAFNNSIIPEDTFFPSPESSCDVKLVEKSFETDTNLNFQNLSVIGFRILLLKVAGFNLLMTLRLWSS TCR beta: EDLKNVFPPEVAVFEPSEAEISHTQKATLVCLATGFYPDHVELSWWVNGKEVHSGVSTDPQPLKEQPALNDSRYCLSSRLRVSATFWQNPRNHFRCQVQFYGLSENDEWTQDRAKPVTQIVSAEAWGRADCGFTSESYQQGVLSATILYEILLGKATLYAVLVSALVLMAMVKRKDSRG	≥ 80
modified TCR of the combination of βCR and α8 (TCR) TCR alpha: CANAFNNSIIPEDTFFPSPESSCDVKLVEKSFETDTNLNFQNLSVIGFRILLLKVAGFNLLMTLRLWSS TCR beta: EDLKNVFPPEVAVFEPSEAEISHTQKATLVCLATGFYPDHVELSWWVNGKEVHSGVSTDPQPLKEQPALNDSRYCLSSRLRVSATFWQNPRNHFRCQVQFYGLSENDEWTQDRAKPVTQIVSAEAWGRADCGFTSESYQQGVLSATILYEILLGKATLYAVLVSALVLMAMVKRKDSRG	≥ 80
modified TCR of the combination of βCR and α9 (TCR) TCR alpha: FNNSIIPEDTFFPSPESSCDVKLVEKSFETDTNLNFQNLSVIGFRILLLKVAGFNLLMTLRLWSS TCR beta: EDLKNVFPPEVAVFEPSEAEISHTQKATLVCLATGFYPDHVELSWWVNGKEVHSGVSTDPQPLKEQPALNDSRYCLSSRLRVSATFWQNPRNHFRCQVQFYGLSENDEWTQDRAKPVTQIVSAEAWGRADCGFTSESYQQGVLSATILYEILLGKATLYAVLVSALVLMAMVKRKDSRG	≥ 80
modified TCR of the combination of βCR and α10 (TCR) TCR alpha: IPEDTFFPSPESSCDVKLVEKSFETDTNLNFQNLSVIGFRILLLKVAGFNLLMTLRLWSS TCR beta: EDLKNVFPPEVAVFEPSEAEISHTQKATLVCLATGFYPDHVELSWWVNGKEVHSGVSTDPQPLKEQPALNDSRYCLSSRLRVSATFWQNPRNHFRCQVQFYGLSENDEWTQDRAKPVTQIVSAEAWGRADCGFTSESYQQGVLSATILYEILLGKATLYAVLVSALVLMAMVKRKDSRG	≥ 80
modified TCR consisting of β1 and αCR (TCR) TCR alpha: NIQNPDPAVYQLRDSKSSDKSVCLFTDFDSQTNVSQSKDSDVYITDKTVLDMRSMDFKSNSAVAWSNKSDFACANAFNNSIIPEDTFFPSPESSCDVKLVEKSFETDTNLNFQNLSVIGFRILLLKVAGFNLLMTLRLWSS TCR beta: SEAEISHTQKATLVCLATGFYPDHVELSWWVNGKEVHSGVSTDPQPLKEQPALNDSRYCLSSRLRVSATFWQNPRNHFRCQVQFYGLSENDEWTQDRAKPVTQIVSAEAWGRADCGFTSESYQQGVLSATILYEILLGKATLYAVLVSALVLMAMVKRKDSRG	≥ 20
modified TCR consisting of β1 and α1 (TCR) TCR alpha: YQLRDSKSSDKSVCLFTDFDSQTNVSQSKDSDVYITDKTVLDMRSMDFKSNSAVAWSNKSDFACANAFNNSIIPEDTFFPSPESSCDVKLVEKSFETDTNLNFQNLSVIGFRILLLKVAGFNLLMTLRLWSS TCR beta: SEAEISHTQKATLVCLATGFYPDHVELSWWVNGKEVHSGVSTDPQPLKEQPALNDSRYCLSSRLRVSATFWQNPRNHFRCQVQFYGLSENDEWTQDRAKPVTQIVSAEAWGRADCGFTSESYQQGVLSATILYEILLGKATLYAVLVSALVLMAMVKRKDSRG	≥ 20
modified TCR consisting of β2 and αCR (TCR) TCR alpha: NIQNPDPAVYQLRDSKSSDKSVCLFTDFDSQTNVSQSKDSDVYITDKTVLDMRSMDFKSNSAVAWSNKSDFACANAFNNSIIPEDTFFPSPESSCDVKLVEKSFETDTNLNFQNLSVIGFRILLLKVAGFNLLMTLRLWSS TCR beta: ATLVCLATGFYPDHVELSWWVNGKEVHSGVSTDPQPLKEQPALNDSRYCLSSRLRVSATFWQNPRNHFRCQVQFYGLSENDEWTQDRAKPVTQIVSAEAWGRADCGFTSESYQQGVLSATILYEILLGKATLYAVLVSALVLMAMVKRKDSRG	≥ 20
modified TCR consisting of β2 and α1 (TCR) TCR alpha: YQLRDSKSSDKSVCLFTDFDSQTNVSQSKDSDVYITDKTVLDMRSMDFKSNSAVAWSNKSDFACANAFNNSIIPEDTFFPSPESSCDVKLVEKSFETDTNLNFQNLSVIGFRILLLKVAGFNLLMTLRLWSS TCR beta: ATLVCLATGFYPDHVELSWWVNGKEVHSGVSTDPQPLKEQPALNDSRYCLSSRLRVSATFWQNPRNHFRCQVQFYGLSENDEWTQDRAKPVTQIVSAEAWGRADCGFTSESYQQGVLSATILYEILLGKATLYAVLVSALVLMAMVKRKDSRG	≥ 20
modified TCR consisting of β2 and α2 (TCR) TCR alpha: SVCLFTDFDSQTNVSQSKDSDVYITDKTVLDMRSMDFKSNSAVAWSNKSDFACANAFNNSIIPEDTFFPSPESSCDVKLVEKSFETDTNLNFQNLSVIGFRILLLKVAGFNLLMTLRLWSS TCR beta: ATLVCLATGFYPDHVELSWWVNGKEVHSGVSTDPQPLKEQPALNDSRYCLSSRLRVSATFWQNPRNHFRCQVQFYGLSENDEWTQDRAKPVTQIVSAEAWGRADCGFTSESYQQGVLSATILYEILLGKATLYAVLVSALVLMAMVKRKDSRG	≥ 20
modified TCR consisting of β2 and α4 (TCR) TCR alpha: DVYITDKTVLDMRSMDFKSNSAVAWSNKSDFACANAFNNSIIPEDTFFPSPESSCDVKLVEKSFETDTNLNFQNLSVIGFRILLLKVAGFNLLMTLRLWSS TCR beta: ATLVCLATGFYPDHVELSWWVNGKEVHSGVSTDPQPLKEQPALNDSRYCLSSRLRVSATFWQNPRNHFRCQVQFYGLSENDEWTQDRAKPVTQIVSAEAWGRADCGFTSESYQQGVLSATILYEILLGKATLYAVLVSALVLMAMVKRKDSRG	≥ 20
modified TCR consisting of β2 and α5 (TCR) TCR alpha: LDMRSMDFKSNSAVAWSNKSDFACANAFNNSIIPEDTFFPSPESSCDVKLVEKSFETDTNLNFQNLSVIGFRILLLKVAGFNLLMTLRLWSS TCR beta: ATLVCLATGFYPDHVELSWWVNGKEVHSGVSTDPQPLKEQPALNDSRYCLSSRLRVSATFWQNPRNHFRCQVQFYGLSENDEWTQDRAKPVTQIVSAEAWGRADCGFTSESYQQGVLSATILYEILLGKATLYAVLVSALVLMAMVKRKDSRG	≥ 20
